Data set [1] deals with T1, DR2539 (Deinococcus radiodurans R1 (ATCC13939)) (UniProt Q9RRF3).
T1 sequence: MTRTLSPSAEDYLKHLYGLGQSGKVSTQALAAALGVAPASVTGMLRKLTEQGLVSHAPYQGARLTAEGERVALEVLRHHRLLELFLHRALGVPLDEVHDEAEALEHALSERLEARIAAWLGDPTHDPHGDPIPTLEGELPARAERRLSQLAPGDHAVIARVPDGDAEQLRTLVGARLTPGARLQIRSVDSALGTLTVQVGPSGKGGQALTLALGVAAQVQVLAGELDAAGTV
Kind of data set: EMSA. The following applies: 30 mM Tris-HCl pH 6.8, 50 mM NaCl, 5% glycerol, 50 ug/mL calf thymus DNA, 50 ug/mL BSA, Mn2+ or Fe2+ (varied), 10 nM FITC-DNA, 30 min at 4 C; 5% native PAGE. (Mobility shift assays separate free from complexed probe on a gel.)

In data set [2] the target is T2, DR0865 (Fur homologue) (Deinococcus radiodurans R1?) (UniProt Q9RW04).
T2 sequence: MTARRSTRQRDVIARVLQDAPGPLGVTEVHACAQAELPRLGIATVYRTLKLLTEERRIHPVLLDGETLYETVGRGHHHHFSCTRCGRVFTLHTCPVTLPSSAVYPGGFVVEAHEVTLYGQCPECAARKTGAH
Description: EMSA. The following applies: 30 mM Tris-HCl pH 6.8, 50 mM NaCl, 5% glycerol, 50 ug/mL calf thymus DNA, 50 ug/mL BSA, Mn2+ or Fe2+ (varied), 10 nM FITC-DNA, 30 min at 4 C; 5% native PAGE.

“GAGCCTCTAGCAAATATGTGACAGCACCCTGAAAACCAGATGACCCAGCGTGACGGAATCTGACTGGATCTTGGGAAAGAGGCATTTTTCACAAAAAAGTCGGCCTTTAAGACGAACTCAAGCCCACGCCGTTGGACA (double strand) [p1709a (mntH promoter lacking inverted repeat)]”: in data set [1], the binding result is reported as “no binding”.

Regarding “CAGGCTGGGAGAACGGGAATCCATGGCCTTTATTTTAGGCGCGACTAAAATAGTTGTCCAACGGCGTGGGCTTGAGTTCGTCTTAAAGGCCGACTTTTTTGTGAAAAATGCCTCTTTCCCAAGATCCAGTCAGATTCCGTCACGCTGGGTCATCTGGTTTTCAGGGTGCTGTCACATATTTGCTAGAGGCTC (double strand) [p1709b (mntH promoter with inverted repeat)]”, the values for the binding result in data set [2] and in data set [1] were “no binding” and “binds”, respectively.
